Experimental findings from patent US20160304565A1 (US Dept. of Health and Human Services, published 2016) are described below.

This data set deals with the molecule itself. The data set is described as follows: gel filtration chromatography (self-association). For orientation: Size exclusion chromatography separates by hydrodynamic size, large species first.

B1: E. coli-produced, properly folded RSV G0-dTM (67-298) protein of the RSV-A2 strain, C-terminal His6 tag (other)
chain: HKVTPTTAIIQDATSQIKNTTPTYLTQNPQLGISPSNPSEITSQITTILASTTPGVKSTLQSTTVKTKNTTTTQTQPSKPTTKQRQNKPPSKPNNDFHFEVFNFVPCSICSNNPTCWAICKRIPNKKPGKKTTTKPTKKPTLKTTKKDPKPQTTKSKEVPTTKPTEEPTINTTKTNIITTLLTSNTTGNPELTSQMETFHSTSSEGNPSPSQVSTTSEYPSQPSSPPNTPRQHHHHHH
notes: also called REG; bacterially produced RSV-A2 G
Regarding B1, the binding result is “binds”.
